Data taken from publication PMC10903754, “o-Vanillin binds covalently to MAL/TIRAP Lys-210 but independently inhibits TLR2” (Journal of Enzyme Inhibition and Medicinal Chemistry, 2024).

Target: the molecule itself
Experiment: turbidity assay; MAL^TIR ~87.5-103 uM in 10 mM HEPES pH 7.5, 150 mM NaCl, 30 °C; filament formation followed by absorbance at 500 nm over time; with or without o-vanillin and analogues

B1: TIR domain of human MAL/TIRAP (MAL^TIR), residues 79-221 (domain or fragment, UniProt P58753 79-221, looked up)
chain: SSRWSKDYDVCVCHSEEDLVAAQDLVSYLEGSTASLRCFLQLRDATPGGAIVSELCQALSSSHCRVLLITPGFLQDPWCKYQMLQALTEAPGAEGCTIPLLSGLSRAAYPPELRFMYYVDGRGPDGGFRQVKEAVMRYLQTLS
notes: MAL (MyD88 adaptor-like protein; TIRAP), human, TIR domain, residues 79-221; construct in the vector pMCSG7; For the NMR work the same construct was 13C-15N labelled and kept in low-salt buffer (10 mM HEPES pH 7.5, 10 mM NaCl); also called WT MAL^TIR; MyD88 adaptor-like protein TIR domain; source: E. coli BL21 (DE3), purified (Ni IMAC, TEV cleavage, SEC Superdex 75)
B1: binds.
